Measurements reported in patent US20140308283A1 (TORAY INDUSTRIES, published 2014).

T1: polypeptide comprising the amino acid sequence of SEQ ID NO: 269 (human)
T1 peptide: PPVNEPETLKQQNQYQAS

T2: peptide of SEQ ID NO: 267 (human)
T2 peptide: QQPQAASPSVPE

T3: polypeptide of SEQ ID NO: 266 (human)
T3 peptide: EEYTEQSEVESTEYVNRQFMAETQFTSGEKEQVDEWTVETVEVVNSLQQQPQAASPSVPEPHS

T4: peptide of SEQ ID NO: 268 (human)
T4 peptide: FTSGEKEQVDEW

T5: CAPRIN-1 protein expressed on the cell membrane surface of human cancer cell lines (human, UniProt Q14444 2-709)
T5 construct: whole, on cells; also called human CAPRIN-1; Cytoplasmic- and proliferation-associated protein 1
T5 sequence (looked up): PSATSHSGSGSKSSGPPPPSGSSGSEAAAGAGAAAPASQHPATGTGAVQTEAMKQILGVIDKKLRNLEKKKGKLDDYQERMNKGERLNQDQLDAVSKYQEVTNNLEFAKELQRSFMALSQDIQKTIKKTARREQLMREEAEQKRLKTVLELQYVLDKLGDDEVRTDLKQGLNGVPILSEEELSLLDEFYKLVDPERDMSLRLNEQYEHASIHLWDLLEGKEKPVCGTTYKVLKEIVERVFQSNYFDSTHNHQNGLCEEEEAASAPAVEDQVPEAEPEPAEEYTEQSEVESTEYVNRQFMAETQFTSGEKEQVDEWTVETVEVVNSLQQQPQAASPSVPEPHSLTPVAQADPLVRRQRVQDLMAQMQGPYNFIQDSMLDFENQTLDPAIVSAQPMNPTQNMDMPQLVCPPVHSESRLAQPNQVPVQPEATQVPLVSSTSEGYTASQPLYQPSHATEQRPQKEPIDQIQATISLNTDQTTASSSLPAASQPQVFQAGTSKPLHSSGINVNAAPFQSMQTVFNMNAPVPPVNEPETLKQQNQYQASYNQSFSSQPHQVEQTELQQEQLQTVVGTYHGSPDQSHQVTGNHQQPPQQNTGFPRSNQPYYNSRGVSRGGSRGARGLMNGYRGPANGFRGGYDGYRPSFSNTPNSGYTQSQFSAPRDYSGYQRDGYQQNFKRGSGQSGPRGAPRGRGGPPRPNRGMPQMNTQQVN

B1: human-chicken chimeric antibody #3 (antibody, human IgG1, kappa, V domains shown)
VH: AVTLDESGGGLQTPGGALSLVCKASGFTFSGYDMLWVRQAPGKGLEWVAGIGSTGGGTDYGAAVKGRATISRDNGQSTVRLQLNNLRAEDTATYYCAKVAGGCNSGYCRDSPGSIDAWGHGTEVIVSA
VL: AVTQQPASVSANPGETVKITCSGGGSRNYYGWYQQKSPGSVPVTVIYYDDQRPSNIPSRFSGALSGSTSTLTITGVQADDEAVYFCGSADSNTYEGSFGAGTTLTVLT
notes: also called human-chicken chimeric monoclonal antibody #3
B2: mouse monoclonal antibody #4 (antibody, V domains shown)
VH: GAELVRSGASVKMSCKASGYSFTDYNMYWVKQTPGQGLEWIGYIYPGNGGTNYNQKFKGKATLTADTSSSTAYMQISSLTSEDSAVYFCARDYDDGGYAMDYWGQGTTVTVSS
VL: DIQMTQSPASLSASVGETVTITCRASGNIHNYLTWYQQKQGKSPQLLVYNAKTLADGVPSRFSGSGSGTQYSLKINRLQPEDFGSYYCQHFWNIPWTFGGGTKLNSR
notes: Mouse hybridoma antibody; also called anti-CAPRIN-1 mouse monoclonal antibody #4
B3: human-chicken chimeric antibody #1 (antibody, human IgG1, kappa, V domains shown)
VH: AVTLDESGGGLQMSRGGLSLVCKASGFDFSSYQMNWIRQAPGKGLEFVAAINKFGNSTGHGAAVKGRVTISRDNGQSTVRLQLNNLRAEDTAIYFCTKHAYGYCGSGTWCAAGEIDAWGHGTEVIVSS
VL: QAASTQPSSVSANPGETVEITCSGGGSYSYGWFQQKSPGSAPVTVIYYNNKRPSDIPSRFSGSKSGSTGTLTITGVQADDEAVYYCGSGDSTDTAVFGAGTTLTVLG
notes: also called human-chicken chimeric monoclonal antibody #1
B4: mouse monoclonal antibody #5 (antibody, V domains shown)
VH: DAELVKPGASVKISCKASGYTFTDHSIHWVQQKPEQGLEWIGYISPGNGNIKYNEKFKGKATLTADKSSSTAYMQLNSLTSEDSAVYFCKRSLGRGGPYYFDYWGQGTTVTVSS
VL: DIVLTQAAPSLPVTPGESVSISCRSSKSLLHSNGNTYLYWFLQRPGQSPQLLIYRMSNLASGVPDRFSGSGSGTAFTLRISRVEAEDVGVYYCMQHREYPVTFGSGPN
notes: Mouse hybridoma antibody; also called anti-CAPRIN-1 mouse monoclonal antibody #5
B5: mouse monoclonal antibody #14 (antibody, V domains shown)
VH: EVQLHQFGAELVKPGASVKISCKASGYTFTDYNMDWVKQSHGKSLEWIGDINPNYDSTSYNQKFKGKATLTVDKSSSTAYMELRSLTSEDTAVYYCARSRSYDYEGFAYWGQGTLVTVSA
VL: DIQLTQSPASLSASVGETVTITCRASGNIHNYLAWYQQKQGKSPQLLVYNAKTLADGVPSRFSGSGSGTQYSLKINSLQPEDFGSYYCQHFWSTLTFGGGTKLEIK
notes: Mouse hybridoma antibody; also called anti-CAPRIN-1 mouse monoclonal antibody #14
B6: mouse monoclonal antibody #15 (antibody, V domains shown)
VH: B5 VH
VL: SGDRVSLSCRASQSISNYLHWYQQKSHESPRLLIKYASQSISGIPSRFSGSGSGTDFTLSINSVETEDFGMYFCQQSNSWPYTFGAGTKLEIKQ
notes: Mouse hybridoma antibody; also called anti-CAPRIN-1 mouse monoclonal antibody #15
B7: mouse monoclonal antibody #18 (antibody, V domains shown)
VH: LQESGAELARPGASVKLSCKASGYTFTSYWMQWVKQRPGQGLEWIGAIYPGDGDTRYTQKFKGKATLTADKSSSTAYMQLSSLASEDSAVYYCARGEYGNYFAYWGQGTTVTVSS
VL: TSDASLGERVTITCKASQDINSYLSWFQQKPGKSPKTLIYRANRLVDGVPSRFSGSGSGQDYSLTISSLEYEDMGIYYCLQYDEFPLTFGGGTKLEIKQ
notes: Mouse hybridoma antibody; also called anti-CAPRIN-1 mouse monoclonal antibody #18
B8: mouse monoclonal antibody #3 (antibody, V domains shown)
VH: GGGLVKPGGSLKLSCAASGFTFSSYGMSWVRQTPEKRLEWVATISSGGSYTYYPDSVKGRFTISRDNAKNTLYLQMSSLRSEDTAMYYCASLASYYFDYWGQGTTLTVSS
VL: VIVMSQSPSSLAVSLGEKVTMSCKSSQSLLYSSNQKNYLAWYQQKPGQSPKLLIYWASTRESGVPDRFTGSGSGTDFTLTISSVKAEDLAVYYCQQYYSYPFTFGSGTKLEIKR

Biological target: T1, polypeptide comprising the amino acid …
Assay: ELISA on immobilised synthetic CAPRIN-1 peptides
Protocol: (§1) Then, the solution in each well was discarded, and each well was washed six times with PBST.
(§2) A TMB substrate solution (manufactured by Thermo Fisher Scientific Inc.) was added thereto at a concentration of 100 μl/well and left standing for 15 to 30 minutes to cause color reaction. After the color development, the reaction was terminated by the addition of 1 N sulfuric acid at a concentration of 100 μl/well. The absorbance was measured at 450 nm and 595 nm using an absorption spectrometer. As a result, a polypeptide of SEQ ID NO: 266 was identified as a partial CAPRIN-1 sequence recognized by all of the anti-CAPRIN-1 antibodies human-chicken chimeric monoclonal antibody #1 and anti-CAPRIN-1 monoclonal antibodies #1 to #5. In the polypeptide of SEQ ID NO: 266, a peptide of SEQ ID NO: 267 was identified as a partial sequence recognized by the human-chicken chimeric monoclonal antibody #1 and the mouse monoclonal antibodies #3 and #4. In the polypeptide of SEQ ID NO: 266, a peptide of SEQ ID NO: 268 was identified as a partial sequence recognized by the mouse monoclonal antibodies #1, #2, and #5. […] Also, a polypeptide comprising the amino acid sequence of SEQ ID NO: 270 was identified as a partial CAPRIN-1 sequence recognized by all of the anti-CAPRIN-1 monoclonal antibodies #6, #7, and #8. […] In addition, a polypeptide comprising the amino acid sequence of SEQ ID NO: 272 was identified as a partial CAPRIN-1 sequence recognized by all of the anti-CAPRIN-1 monoclonal antibodies #9, #10, and #11. […] In addition, a polypeptide comprising the amino acid sequence of SEQ ID NO: 269 was identified as a partial CAPRIN-1 sequence recognized by the human-chicken chimeric monoclonal antibody #3.

| Binder | binding result |
| --- | --- |
| B1 | binds |

Biological target: T2, peptide of SEQ ID NO: 267
Assay: ELISA on immobilised synthetic CAPRIN-1 peptides
Protocol: as §1, §2

| Binder | binding result |
| --- | --- |
| B2 | binds |
| B3 | binds |

Biological target: T3, polypeptide of SEQ ID NO: 266
Assay: ELISA on immobilised synthetic CAPRIN-1 peptides
Protocol: as §1, §2

| Binder | binding result |
| --- | --- |
| B2 | binds |
| B4 | binds |
| B3 | binds |

Biological target: T4, peptide of SEQ ID NO: 268
Assay: ELISA on immobilised synthetic CAPRIN-1 peptides
Protocol: as §1, §2

| Binder | binding result |
| --- | --- |
| B4 | binds |

These binders were tested against T5, CAPRIN-1 protein expressed on the cell … (assay: flow cytometry on Capan-2, MIAPaCa-2, PANC-1 and BxPC-3 cells, vs isotype control).
Protocol: Next, four pancreatic cancer cell lines (Capan-2, MIAPaCa-2, PANC-1, and BxPC-3) confirmed to have CAPRIN-1 gene expression were examined for their expression of CAPRIN-1 protein on the cell surface. 10⁶ cells of each cell line were centrifuged in each 1.5-ml microcentrifuge tube. The cancer cell surface-reactive anti-CAPRIN-1 mouse monoclonal antibodies #1 to #22 prepared in Example 4 and the culture supernatant (100 μl) containing the anti-CAPRIN-1 mouse-chicken chimeric antibody #1, #2, or #3 prepared in the preceding paragraph (2) were separately added to the tubes and left standing for 1 hour on ice. After washing with PBS, the cells were suspended in FITC-labeled goat anti-mouse IgG antibodies (manufactured by Invitrogen Corp.) diluted 500-fold with PBS containing 0.1% FBS and left standing for 1 hour on ice. After washing with PBS, the fluorescence intensity was measured using FACSCalibur (Becton, Dickinson and Company). On the other hand, the same operation as above was performed using isotype control antibodies, instead of the anti-CAPRIN-1 mouse monoclonal antibodies #1 to #22 and the culture supernatant containing the mouse-chicken chimeric antibody #1, #2, or #3, to prepare a control. As a result, all the cells supplemented with any of the monoclonal antibodies #1 to #22 and the mouse-chicken chimeric antibodies #1, #2, and #3 had fluorescence intensity at least 20% stronger than that of the control. […] The above rate of enhancement in fluorescence intensity was indicated by the rate of increase in mean fluorescence intensity (MFI) in each cell line and calculated according to the following expression: […]

| Binder | rate of increase in mean fluorescence intensity [%] |
| --- | --- |
| B5 | ≥ 20 |
| B6 | ≥ 20 |
| B7 | ≥ 20 |
| B8 | ≥ 20 |
| B2 | ≥ 20 |
| B4 | ≥ 20 |

The binders below were run against T5, CAPRIN-1 protein expressed on the cell … (assay: cell-based or functional assay).

| Binder | cytotoxic activity (ADCC) against MIAPaCa-2 and Capan-2 [%] |
| --- | --- |
| B5 | ≥ 10 |
| B6 | ≥ 10 |
| B7 | ≥ 10 |
| B1 | ≥ 10 |
| B8 | ≥ 10 |
| B2 | ≥ 10 |
| B4 | ≥ 10 |
